# Data from patent US20260028415A1 (FULL LIFE TECHNOLOGIES HK, published 2026).
# Numbering of substitutions follows the chain as printed.
# T1: human CEACAM5 expressed on MKN45 cells (human, UniProt P06731 35-685)
# T1 sequence: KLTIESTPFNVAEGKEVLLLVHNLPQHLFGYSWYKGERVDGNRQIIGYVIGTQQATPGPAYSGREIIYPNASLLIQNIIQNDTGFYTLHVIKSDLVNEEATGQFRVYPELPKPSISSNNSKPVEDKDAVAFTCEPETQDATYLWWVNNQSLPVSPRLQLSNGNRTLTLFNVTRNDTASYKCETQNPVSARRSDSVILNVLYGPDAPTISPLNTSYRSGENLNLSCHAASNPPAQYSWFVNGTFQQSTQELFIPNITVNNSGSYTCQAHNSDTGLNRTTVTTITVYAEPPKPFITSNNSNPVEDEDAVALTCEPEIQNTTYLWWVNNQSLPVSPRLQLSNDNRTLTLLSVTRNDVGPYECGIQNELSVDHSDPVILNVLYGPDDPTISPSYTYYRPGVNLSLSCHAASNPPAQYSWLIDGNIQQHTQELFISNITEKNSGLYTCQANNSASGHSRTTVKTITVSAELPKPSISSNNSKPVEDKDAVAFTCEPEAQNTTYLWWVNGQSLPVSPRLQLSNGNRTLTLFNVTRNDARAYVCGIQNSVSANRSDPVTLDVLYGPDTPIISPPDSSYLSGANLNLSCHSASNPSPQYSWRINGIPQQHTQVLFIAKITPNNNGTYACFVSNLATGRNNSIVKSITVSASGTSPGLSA
# T2: Human CEACAM5 A3B3 domain (human, UniProt P06731 499-685)
# T2 construct: also called human A3B3 domain; not shown: The human Fc part (and any linker) implied by capture on an anti-human Fc antibody chip
# T2 sequence: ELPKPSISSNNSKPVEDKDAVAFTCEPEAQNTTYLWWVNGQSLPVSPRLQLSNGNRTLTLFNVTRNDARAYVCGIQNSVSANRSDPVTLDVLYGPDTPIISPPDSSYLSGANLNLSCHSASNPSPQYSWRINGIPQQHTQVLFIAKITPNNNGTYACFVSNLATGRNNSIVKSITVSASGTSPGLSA
# B1: anti-CEACAM5 single domain antibody of SEQ ID NO: 8 (VHH)
# VHH: AVQLVESGGGLVQAGGSLRLSCAASGRTFSSYWLGWFRQVPGEEREFVAAISWSGSGVVTNYADSVKGRFTISRDDGNNALYLQMSNLNPEDTAVYYCAARLGTYYKDYARSGAYDTWGQGTQVTVSS
# notes: tags or Fc in the assays are not described
# B2: anti-CEACAM5 single domain antibody of SEQ ID NO: 3 (VHH)
# VHH: EVDLVESGGGLVQPGGSLRLSCAASGFTFSSYYMSWVRQPPGKGIEWVSEISSGGGSTNYAVPVEGRFTISRDNAKNTLSLQMNSLKPEDTALYYCARGSHADFNSWGQGTQVTVSS
# notes: as for B1
# B3: anti-CEACAM5 single domain antibody of SEQ ID NO: 2 (VHH)
# VHH: QLQLVESGGGLVQPGGSLRLSCAVSGDRWDYYAIGWIRQAPGKEREGVSCISSSGRTTNYADSVKGRFTISRDNAKNTVYLQMNSLKPEDTAVYYCSTEFTGWDRCGFDEYDHRGQGTQVTVSS
# notes: as for B1
# B4: anti-CEACAM5 single domain antibody of SEQ ID NO: 6 (VHH)
# VHH: EVQLVESGGGLVQPGGSLRLSCAASRGTFSRLDMGWFRQAPGKEREFVASSTWSGGTAYATDSVKTRFTISRDSAKTTVYLQMNSLRPEDTAVYYCAAGLSLEQHTPPYWGQGTQVTVSS
# notes: as for B1
# B5: anti-CEACAM5 single domain antibody of SEQ ID NO: 5 (VHH)
# VHH: EVDLVESGGGLVQAGGSLRLSCAPSGRTSSLDTMAWFRQAPGKEREFVASTNWNRGGASYADSVKGRFTISRDATKNTVYLQINSLEPEDTAVYYCAASTRGIVSDNYWGQGTQVTVSS
# notes: as for B1
# B6: anti-CEACAM5 single domain antibody of SEQ ID NO: 1 (VHH)
# VHH: EVQLVESGGGLVQAGGSLRLSCVASTRIAGMGWYRAPPGKGRELVASISEEGTTTYAVPVEGRFTVSRDNVKNMLHLQMNSLKPEDTAMYYCVARRTFPSVVEGVDYWGQGTQVTVSS
# notes: Alpaca sdAb clone expressed in E. coli
# B7: anti-CEACAM5 single domain antibody of SEQ ID NO: 4 (VHH)
# VHH: EVQLVESGGGLVQPGESLRLSCAASGFSFSSYAMSWVRQPPGMGIEWVAEIDSGGGSTDYAVPVKGRFTISRDNVKNTLYLQMNSLKPEDTAVFYCAKGTHADFGSWGQGTQVTVSS
# notes: as for B1
# B8: anti-CEACAM5 single domain antibody of SEQ ID NO: 9 (VHH)
# VHH: B7 VHH with E1Q, S28T, M43K, G56D, S57R, K76E, Q112L
# notes: as for B1
# B9: anti-CEACAM5 single domain antibody of SEQ ID NO: 10 (VHH)
# VHH: EVDLMESGGGLVQPGGSLRLSCTASGDTLDYYAIDWFRQAPGKEREGVSCISSRGGTTNYADAVKGRFTISRDNAKNTVYLQMNSLRPEDTAVYYCAAEFTGWAVCNFSRKSGEYDYWGQGTQVTVSS
# notes: as for B1
# B10: anti-CEACAM5 single domain antibody of SEQ ID NO: 7 (VHH)
# VHH: EVQLVESGGGLVQAGGSLRLSCAASGRTFSRDVMGWFRQAPGKEREFVAVINWTDSTYYLDSVKGRFTISRENAENTVYLQMNSLKPEDTAIYYCATGIGGLYRRPSAYKYWGQGTQVTVSS
# notes: as for B1
# Molecular target: T1, human CEACAM5 expressed on MKN45 cells
# Test: flow cytometry on MKN45 cells, 300 nm [sic], PE-anti human Fc secondary; negative control
row,Geometric mean MFI [MFI],Molecule
1,12.9,Human IgG1 isotype (antibody)

# Molecular target: T2, Human CEACAM5 A3B3 domain
# Test: SPR (Biacore T200), A3B3 domain captured on anti-human Fc CM5 chip, sdAb injected, 1:1 Langmuir
Kd [nM],koff [s⁻¹],kon [M⁻¹ s⁻¹],Molecule
19.1,0.00243,127000,B1
7.74,0.0032,414000,B2
0.533,0.000997,1.87e+06,B3
7.77,0.00126,162000,B4
9.74,0.00208,214000,B5
0.362,4.46e-05,123000,B6
2,0.000311,155000,B7
0.732,–,–,B8
48.9,0.0137,280000,B9
19,0.013,688000,B10

# Molecular target: T1, human CEACAM5 expressed on MKN45 cells
# Test: cell-based or functional assay
row,"EC50 (read off the curve), internalization by pHrodo [nM]",Molecule
1,~20,B5
2,~20,B6
3,25 to 30,B8
4,~20,B9

# Molecular target: T1, human CEACAM5 expressed on MKN45 cells
# Test: flow cytometry on MKN45 cells, sdAb at 300 nm as printed, PE-anti human Fc secondary
row,Geometric mean MFI [MFI],Molecule
1,636,B1
2,565,B3
3,647,B4
4,292,B5
5,292,B6
6,394,B7
7,382,B8
